Publication PMC10531985, “A Unique G-Quadruplex Aptamer: A Novel Approach for Cancer Cell Recognition, Cell Membrane Visualization, and RSV Infection Detection”

Experiments:
nucleolin (NCL) [1] = biological target: T1, nucleolin (NCL) (Homo sapiens, UniProt P19338 1-710); test: EMSA; K+; SPR: 10 mM HEPES, 150 mM KCl, 3 mM EDTA, pH 7.4, NCL on CM5 chip, temperature not stated; EMSA: 5x binding buffer listed as 40 mM Tris, 30 mM KCl, 1 mM MgCl2, 1 mM DTT, pH 8.0, 200 nM probe, room temperature 25 min, gel with 20 mM KCl at 4 C; conditions: protein: recombinant; label: 5'-FAM; parallel G4
T1 sequence (P19338 whole entry): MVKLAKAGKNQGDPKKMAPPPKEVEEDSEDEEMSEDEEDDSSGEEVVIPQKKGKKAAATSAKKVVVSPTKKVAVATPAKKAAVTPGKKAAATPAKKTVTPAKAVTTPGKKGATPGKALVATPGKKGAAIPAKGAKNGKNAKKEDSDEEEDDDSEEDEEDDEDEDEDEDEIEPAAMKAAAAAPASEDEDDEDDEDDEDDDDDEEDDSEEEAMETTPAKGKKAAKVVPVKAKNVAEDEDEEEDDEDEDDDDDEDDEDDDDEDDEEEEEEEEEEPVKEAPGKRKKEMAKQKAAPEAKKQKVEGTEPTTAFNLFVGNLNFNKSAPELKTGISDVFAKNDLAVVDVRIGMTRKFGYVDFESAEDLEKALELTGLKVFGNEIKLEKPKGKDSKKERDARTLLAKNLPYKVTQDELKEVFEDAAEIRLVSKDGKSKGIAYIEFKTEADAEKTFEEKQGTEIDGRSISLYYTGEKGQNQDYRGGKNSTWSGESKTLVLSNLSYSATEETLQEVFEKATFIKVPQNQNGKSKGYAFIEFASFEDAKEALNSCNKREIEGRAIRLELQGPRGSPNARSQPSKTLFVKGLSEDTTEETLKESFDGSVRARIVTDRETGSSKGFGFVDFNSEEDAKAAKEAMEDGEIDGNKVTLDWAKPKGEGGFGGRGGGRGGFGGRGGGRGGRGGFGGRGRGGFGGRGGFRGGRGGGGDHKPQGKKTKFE

nucleolin (NCL) [2] = biological target: T1, nucleolin (NCL); test: SPR; 150 mM KCl; SPR: 10 mM HEPES, 150 mM KCl, 3 mM EDTA, pH 7.4, NCL on CM5 chip, temperature not stated; EMSA: 5x binding buffer listed as 40 mM Tris, 30 mM KCl, 1 mM MgCl2, 1 mM DTT, pH 8.0, 200 nM probe, room temperature 25 min, gel with 20 mM KCl at 4 C; conditions: protein: recombinant, parallel G4
nucleolin (NCL) [3] = biological target: T1, nucleolin (NCL); test: SPR; up to 2 uM aptamer; SPR: 10 mM HEPES, 150 mM KCl, 3 mM EDTA, pH 7.4, NCL on CM5 chip, temperature not stated; EMSA: 5x binding buffer listed as 40 mM Tris, 30 mM KCl, 1 mM MgCl2, 1 mM DTT, pH 8.0, 200 nM probe, room temperature 25 min, gel with 20 mM KCl at 4 C; conditions: protein: recombinant; no G4

GUUAGGGUUUAUGGGAUUG (structured_RNA) [Apt-3-F]
Kd (nucleolin (NCL) [1]): 77.1 nM
Kd (nucleolin (NCL) [2]; label: 5'-FAM): 24.9 nM

GUUAGGGUUUAUGGGAUUG (structured_RNA) [Apt-3]
Kd (nucleolin (NCL) [2]): 20.4 nM

GUUAGAGUUUAUGAGAUUG (ssRNA) [Apt-3 mutant]
binding result (nucleolin (NCL) [3]): no binding
